Measured values: patent publication US20180244783A1, “COMBINATION THERAPY FOR TREATMENT OF DISEASE” (OncoMed Pharmaceuticals, Inc., priority 2015, published 2018)

B1: 18R5: anti-FZD IgG2 antibody binding FZD1, FZD2, FZD5, FZD7, FZD8; heavy chain SEQ ID NO:11, light chain SEQ ID NO:12 (antibody)
heavy: EVQLVESGGGLVQPGGSLRLSCAASGFTFSHYTLSWVRQAPGKGLEWVSVISGDGSYTYYADSVKGRFTISSDNSKNTLYLQMNSLRAEDTAVYYCARNFIKYVFANWGQGTLVTVSSASTKGPSVFPLAPCSRSTSESTAALGCLVKDYFPEPVTVSWNSGALTSGVHTFPAVLQSSGLYSLSSVVTVPSSNFGTQTYTCNVDHKPSNTKVDKTVERKCCVECPPCPAPPVAGPSVFLFPPKPKDTLMISRTPEVTCVVVDVSHEDPEVQFNWYVDGVEVHNAKTKPREEQFNSTFRVVSVLTVVHQDWLNGKEYKCKVSNKGLPAPIEKTISKTKGQPREPQVYTLPPSREEMTKNQVSLTCLVKGFYPSDIAVEWESNGQPENNYKTTPPMLDSDGSFFLYSKLTVDKSRWQQGNVFSCSVMHEALHNHYTQKSLSLSPGK
light: DIELTQPPSVSVAPGQTARISCSGDNIGSFYVHWYQQKPGQAPVLVIYDKSNRPSGIPERFSGSNSGNTATLTISGTQAEDEADYYCQSYANTLSLVFGGGTKLTVLGQPKAAPSVTLFPPSSEELQANKATLVCLISDFYPGAVTVAWKADSSPVKAGVETTTPSKQSNNKYAASSYLSLTPEQWKSHRSYSCQVTHEGSTVEKTVAPTECS
modifications: Heavy chain amino acid sequence without predicted signal sequence; Light chain amino acid sequence without predicted signal sequence

Experiments:
B16F10 melanoma = B16F10 melanoma tumor growth in mice; assay type: in vivo; conditions: B16F10 melanoma in C57b16/J mice; vs control antibody (Hamster IgG); 18R5 45 mg/kg Q2W, 54F28 50 mg/kg Q2W, anti-CTLA-4 (4F10-11) 10 mg/kg 3QW; n=10
Procedure: B16F10 melanoma cells were implanted into the rear flanks of C57b16/J mice. When tumors reached a mean tumor volume of ˜100 mm^3 as measured by electronic caliper, mice were grouped and treated with a control antibody (Hamster IgG, 10 mg/kg, 3QW), 18R5 (45 mg/kg, Q2W), anti-CTLA-4 (4F10-11, 10 mg/kg, 3QW), 54F28 (50 mg/kg, Q2W), or a combination of 18R5+ anti-CTLA-4 or 54F28+ anti-CTLA-4. […] Data shown represents the mean ±SEM (n=10).

B16F10 target cells = test: T cell cytotoxicity, calcein release from B16F10 target cells; assay type: in vivo, mouse; conditions: splenocytes of treated B16F10 tumor-bearing mice, cultured 6 days with mgp100 peptide; effector:target 25:1; vs Hamster IgG; FIG. 2B
Procedure: To measure changes in T cell toxicity, the mouse melanoma cell line B16F10 was cultured in DMEM culture medium supplemented with 10% (v/v) fetal bovine serum (FBS), 2 mM L-glutamine, and 100 U/mL penicillin at 37° C. in a humidified atmosphere of 5% CO2. Total splenocytes from were cultured for 6 days in RPMI 1640 medium supplemented with 10% FBS, 2 mM L-glutamine, 100 U/mL penicillin, and 1 μg/mL mgp100 peptide (Anaspec). B16F10 target cells were labeled with 10 μM calcein AM (Life Technologies) for 1 hour at 37° C. and then combined with the splenocytes at an effector:target ratio of 25:1. Following a four-hour incubation at 37° C., cell-free supernatants were harvested and calcein release was quantified on a fluorometer at an excitation of 485 nm and an emission of 535 nm. The percentage of specific cell lysis was determined as: % lysis=100×(ER-SR)/(MR-SR), where ER, SR, and MR represent experimental, spontaneous, and maximum calcein release, respectively. Spontaneous release is the fluorescence emitted by target cells incubated in media alone (i.e., in the absence of effector cells), while maximum release is determined by lysing target cells with an equal volume of 10% SDS. For all groups, p<0.05 vs. Hamster IgG.

B16F1 tumors = test: T-cell tumor infiltration by flow cytometry (FACS); assay type: in vivo, mice; conditions: compared to anti-CTLA-4 + anti-PD-L1 without 18R5 (or control antibodies)
Procedure: The change is T-cell tumor infiltration was also measured. Here, B16F1 tumors were isolated from control antibody, anti-CTLA-4 and anti-mouse PD-L1 combination; and anti-mouse Fzd7 (18R5)+anti-mouse anti-CTLA-4+ anti-mouse PD-L1 combination antibody-treated mice. Single cell suspensions were acquired from 4-6 independently treated tumors and were stained for tumor infiltrating immune cells using fluorescently-labeled anti-CD45, anti-CD4, and anti-CD8 antibodies. Flow cytometry analysis (FACS) was performed and the relative percentage populations of CD45+/CD4+ and CD45+/CD8+ T cells are shown.

B16F1 melanoma cells = test: B16F1 melanoma tumor growth with GVAX, anti-CTLA-4 and anti-PD-L1; assay type: in vivo; conditions: C57BL6J mice, murine chimera 18R5 added to anti-CTLA-4 (9D9) + anti-PD-L1 (10F.9G2), compared to these antibodies without 18R5, FIGS. 3A-3D
Procedure: The effect of the anti-Fzd antibody, OMP-18R5, on melanoma cell line tumor growth was tested animals receiving the combination of anti-CTLA-4 and anti-PD-L1 antibodies. In these experiments, ten thousand B16F1 melanoma cells were injected subcutaneously into C57BL6J mice. On days 4, 7, and 10 post-implantation, “GVAX” tumor vaccine was administered by the injection of 2 million mitomycin C-treated cells of a B16F1 subclone stably transfected with a plasmid encoding m-GM-CSF (with GM-CSF expression confirmed by ELISA), as previously described by Curran and Allison, Cancer Res 69:7747, 2009. Anti-CTLA-4 clone 9D9 (BioXCell; West Lebanon, N.H.) was dosed on days 5, 8, and 12. Anti-PD-L1 clone 10F.9G2 (BioXCell) was dosed on days 5, 8, 12, 14, 19, 22, and 26, and either 1B7.11 isotype or murine chimera 18R5 were administered days 5, 12, 19, and 26 following parental B16F1 cell implantation.

splenocytes = test: ELISpot cytokine secretion assay of splenocytes (hgp100 peptide); assay type: in vivo, mice; conditions: splenocytes with 1 μg/ml hgp100 peptide, 18R5 added to anti-CTLA-4 + anti-PD-L1 therapy
Procedure: Using the ELISpot cytokine secretion assay, secretion of IFN-gamma and IL-2 was measured following 18R5 treatment. In these assays, splenocytes were harvested from a minimum of four mice per group, filtered, and the red blood cells lysed and re-suspended in RPMI+10% FBS+penn/strep at a concentration of 10^6 cells/ml in the presence of 1 μg/ml hgp100 peptide. Cells were plated on pre-coated ELISpot plates, incubated overnight and processed according to manufacturer's instructions (MabTech, Cincinnati, Ohio). Developed plates were read on a BioSys BioReader 6000-F b. The results from this assay are shown in FIG. 4A (IFN-gamma) and FIG. 4B (IL-2). Values shown are total optical density. As shown in these figures, IFN-gamma and IL-2 were increased by addition of 18R5 therapy.

Molecule	anti-tumor growth vs control (B16F10 melanoma)	T cell cytotoxicity (specific cell lysis) (B16F10 target cells)	CD4+ T cell tumor infiltration (CD45+/CD4+) (B16F1 tumors; FIG. 6A)	CD8+ T cell tumor infiltration (CD45+/CD8+) (B16F1 tumors; FIG. 6B)	tumor growth (B16F1 melanoma cells)	IFN-gamma secretion (ELISpot, total optical density) (splenocytes; FIG. 4A)	IL-2 secretion (ELISpot, total optical density) (splenocytes; FIG. 4B)
54F28: FZD8-Fc soluble receptor, SEQ ID NO:41 (SEQ ID NO:45 with signal sequence)	significant anti-tumor growth	increased					
B1		increased	increased	increased	decreased	increased	increased
